Results taken from PMC4195440.

Molecular target: Siglec-10 receptor overexpressed on CHO cells (UniProt Q96LC7)
UniProt Q96LC7, sequence (Q96LC7 17-697): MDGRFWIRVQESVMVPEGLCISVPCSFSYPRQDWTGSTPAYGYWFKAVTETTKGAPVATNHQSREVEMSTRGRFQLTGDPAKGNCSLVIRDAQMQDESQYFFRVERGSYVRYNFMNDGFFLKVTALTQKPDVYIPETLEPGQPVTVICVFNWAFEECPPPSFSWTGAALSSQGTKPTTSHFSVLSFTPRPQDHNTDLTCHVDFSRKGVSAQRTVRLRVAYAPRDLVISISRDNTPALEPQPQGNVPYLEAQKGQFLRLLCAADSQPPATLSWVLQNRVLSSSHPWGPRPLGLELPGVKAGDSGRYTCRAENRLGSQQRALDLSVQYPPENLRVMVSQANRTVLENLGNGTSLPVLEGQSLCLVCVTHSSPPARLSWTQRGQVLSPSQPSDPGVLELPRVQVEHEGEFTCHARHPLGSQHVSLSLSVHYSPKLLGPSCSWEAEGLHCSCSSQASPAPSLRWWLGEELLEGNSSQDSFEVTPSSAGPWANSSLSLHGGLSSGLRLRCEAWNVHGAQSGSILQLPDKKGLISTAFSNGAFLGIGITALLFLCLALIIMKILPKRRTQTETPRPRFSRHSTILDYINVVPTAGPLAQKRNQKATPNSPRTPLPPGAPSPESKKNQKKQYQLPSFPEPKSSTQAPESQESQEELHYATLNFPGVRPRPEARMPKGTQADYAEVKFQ

Question: “flagella (flagellin FlaA) of C. jejuni 11168H WT (from UniProt P56963 1-572) (natural protein)” was tested. Which IL-10 secretion (ELISA) of Siglec-10 transduced RAW264.7 cells against GFP control-transduced cells, infection with live 11168H WT, MOI 100, 24 hours did it give?
Answer: Its IL-10 secretion (ELISA) of Siglec-10 transduced RAW264.7 cells against GFP control-transduced cells, infection with live 11168H WT, MOI 100, 24 hours is 2 fold.
